Patent US11407825B2, “NaPi2b-targeted polymer antibody-drug conjugates and methods of use thereof” (Mersana Therapeutics, Inc., priority 2018, dated 2022)

Experiment: Plasma PK profile in patients dosed with XMT-1536
Format: in vivo, human
Conditions: 30 patients, 3 to 40 mg/m^2, total antibody, conjugated drug, free drug, AF
Protocol: The PK profile of the active ingredient of XMT-1536, its release product and selected metabolites are determined for each patient by non-compartmental analysis using standard PK software (e.g., Phoenix WinNonlin). PK parameters per patient include time of maximum observed concentration (tmax), maximum concentration (Cmax), and area under the concentration curve for the last measurable concentration (AUC0-last). When the terminal elimination phase is identified, additional parameters such as elimination half-life, clearance, and volume of distribution are determined.
The plasma PK profile for the analytes (total antibody; conjugated drug (AF-HPA); free drug (AF-HPA) and the drug metabolite auristatin F (AF)) was determined in blood samples from 30 patients (3 mg/m^2, n=1; 6 mg/m^2, n=1; 12 mg/m^2, n=7; 20 mg/m^2, n=15; 30 mg/m^2, n=5; 40 mg/m^2, n=1). […] The PK characteristics is consistent with that reported for other approved antibody-drug conjugates or those currently in clinical development.

B1: XMT-1536: about 10-15 molecules of auristatin F-hydroxypropyl amide conjugated to a cysteine moiety of NaPi2b monoclonal antibody XMT-1535 via a PHF scaffold (conjugate, chains of the INN, looked up)
VH: QVQLVQSGAEVVKPGASVKMSCKASGYTFTGYNIHWVKQAPGQGLEWIGAIYPGNGDTSYKQKFRGRATLTADTSTSTVYMELSSLRSEDSAVYYCARGETARATFAYWGQGTLVTVSS
VL: DIQMTQSPSSLSASVGDRVTITCSASQDIGNFLNWYQQKPGKTVKVLIYYTSSLYSGVPSRFSGSGSGTDYTLTISSLQPEDFATYYCQQYSKLPLTFGQGTKLELK
modifications: auristatin F-hydroxypropyl amide via PHF scaffold
notes: about 10-15 molecules of auristatin F-hydroxypropyl amide conjugated to a cysteine moiety of NaPi2b monoclonal antibody XMT-1535 via a PHF scaffold
exposure with increasing doses, normalized to dose: nearly dose proportional
